Laboratory results taken from the DeepSol protein solubility set.

Experiment: soluble on expression in E. coli; label from the status in PepcDB or PDB records

Row | Sequence | soluble on expression in E. coli
1 | MGSDKIHHHHHHMSSAQVNGISKRLIVESPNVKLEDGVLESRFTYRKNHFEHRADGLHVTPKEHDYSFKTVLKPRKTGLLLVGLGGNNGSTAVGSIFANQYAMTWRTKEGHSQANYFGSVTQTATVHLGYDSATQNQIFVPFKDIVPILSPNDLIISGWDISDSNLYEAMGRAKVFEPELQEKLRPFMEPIVPLPSIYYPDFIASNQGDRANNVIPGDNKLEHLEHIRADIRKFKQEHELECVIVLWTANTERYTDVRQGLNATADEIMESIRVNEDEVSPSNIFAVASILEGAHYINGSPQNTLVPGLIELAERHKVFVGGDDFKSGQTKFKSAFVDFLVSSGMKPESIVSYNHLGNNDGKNLSEARQFRSKEISKSSVVDDMVKSNQILFPDAKNPDYCVVIKYVPYVADSKRAMDEYICSIFMGGKQTFVVHNTCEDSLLASPLIYDLAILTELASRVSYKVDDEYKPFHSVLSILSLLLKAPVVPPGTPISNAFMRQFSTLTKLVTALAGFPSDTDMQIEFFTQLPAAKSKSQ | soluble
2 | MGSDKIHHHHHHMNYLQIARNSLAAEQNALAKLSQNLNQQFNQVVELILNCEGRLVVGGIGKSGLIGKKMVATFASTGTPSFFLHPTEAFHGDLGMLKPIDIVMLISYSGESDDVNKLIPSLKNFGNKIIALTGNLNSTLAKHADYILDISVEREACPNNLAPTTSALVTLALGDALAVSLITARNFQPADFAKFHPGGSLGRRLLCRVKDQMQVRLPKVTENTNFTDCLTVMNEGRMGVALVMENENLKGIITDGDIRRALSANGTNTLNKTAKDLMTSNPKTINYNTYLSEAENFMKEKKIHSLVVVDDQNKVIGLVEFSS | not soluble
3 | MQTLLLALFSLAMVQAMRDQSIAVKGRLICGDKPAANVRIKLWEEDSGPDPDDLLEAGYTDSNGEFQLSGGEAELTPIDPIFKVYHDCDDKYIPGHRKVKFLIPKSYITQGKTPKKTFDLGVLNLETIFPKEERELIVSRKRRHHPKQYINEEDSF | not soluble
4 | MSLKKILIIVPDGGMLFESAGIADILMQANRLHPEGAREICYQVKLATTQPHQVIHGQSGLNLLADHRLHEIDPREPLDTIMITGRGQNPQEGMAVVDWLRLAAPHARRIVSICGGAMLLAQTGLLDGRRATTHWKLLETMQAEFPQIRVEGGPLYIQDEHIWTSGGVSSGFDLTLALVEEDYGFSLARDIAQDFVMYLRRPGGQLQFSRYNLQQTATQGPINDLLAWLLENLTADLSVDKLAEKVAMSPRNFTRVFTRETGASPARYVAEARLAAARQRLEQTHETLDRIAEQTGFGSSINLRRLFEKQLNLTPGEYRQRFHCRKMAEGHHHHHH | soluble
5 | MSDDLSAFFAKKKDKKKKSAVKIEEVGQALERRAKRQEEYEQESEDVSEKRVEEEKAVNPNEESEWIEYGESQGRLDGLKIKDMGLESEQDQVNNEEPEDREVHETKTWGQVSSEKKATEEPEQAVTISDKAMAAAYKPPAMRRPGAPYRPRAAAANLDMGSDAAFPSLADASKIEKNKKEESKSPGGWVKAGSGGAWPGSSGPSSSGSSRSYPTTAGSGRDSALAALKMMSAANPAPARNEPAPAPAAAAPASSGAAKAGSYVPPHLRKNQ | not soluble
6 | MGSDKIHHHHHHMAQNFHDNSQVSSEMSTAISRTAKPSSEFYSIFSEEEILGIICALEIRREIPLKYSYKGRGAKIWDDFYQKYIIPRWYRISNVEIELLKSNFKYFNDNIKSGEKINIVDVGAGNSYPVKDFVQRLNKLNKINKYVALDISEELLNLSKNNFKKWFPNVEFISSTIDIENNCVPKTLFQNNPDLEMDNTAKIFLHLGVTIGNHQNRDKVFKNFRESMGKNDFLVFTNEIGSNSKWDGNVRGGCKYHVEEIYGWVKNKVGIESEGCELVRKYDLKTDSIVANIRFNHDYTINFSRMGIDKKIEISEGEEITIWRHHKYEMPKLLQELERSGLQLIQYSTDKYKSHIMVICKISSN | not soluble
7 | MSLAQLGRFWHISDLHLDPNYTVSKDPLQVCPSAGSQPVLNAGPWGDYLCDSPWALINSSLYAMKEIEPKPDFILWTGDDTPHVPNESLGEAAVLAIVERLTNLIKEVFPDTKVYAALGNHDFHPKNQFPAQSNRIYNQVAELWRPWLSNESYALFKRGAFYSEKLPGPSRAGRVVVLNTNLYYSNNEQTAGMADPGEQFRWLGDVLSNASRDGEMVYVIGHVPPGFFEKTQNKAWFRESFNEEYLKVIQKHHRVIAGQFFGHHHTDSFRMFYDNTGAPINVMFLTPGVTPWKTTLPGVVDGANNPGIRIFEYDRATLNLKDLVTYFLNLRQANVQETPRWEQEYRLTEAYQVPDASVSSMHTALTRIASEPHILQRYYVYNSVSYNHLTCEDSCRIEHVCAIQHVAFNTYATCLHGLGAKLVPGEGHHHHHH | not soluble
8 | MIAKIIKGTSFSGVLAYILGKQEGKARILYADGVRANAQASDIANDFALQASMRPNVKKPVCHTILSFSAEDTERLSDKVMTDLAKEYLQRMGYADTQYLIVRHLDREHPHLHICINRVNNEGKTISDSNEKYCSTKVCKELTEANLLKWGEGKEAVKRHRLRGNDQLRYAIFDAIKAALPKCTNWQELTSELQKRGIEVQFKTKGQTEKVEGVIFSMDGVSFSGSHIDRSCSYSKLSFALEQNAKHALSLPALPKEDGFIEELSEAIEKLGENLFDSNAPAVDVAELIFQRKLRNQANKKLKRRRL | not soluble
9 | MMKITDEKAEDVNLSTIKVVKRDGRLVTFDDQKIYDALIKAEQKIHDQVTPLTHQKVQSIVADVNREIAERFTNNVKIYEIQNIVEHTLLSNNEYALAEEYIHYRTQRDFERSKATD | not soluble
10 | MSLHTAQKTRKGEHKWAAVVGLEIHAQISSNSKLFSGSQVRFSAPPNSLVSFFDASLPGTLPVLNRRCVEAAVMTGLALNCHINKKSLFDRKHYFYADLPAGYQITQQRLPIAVNGSLIYGVCAGKKQSQVIPKTVRIKQIQLEQDSGKSLHDNLRSQTLIDLNRAGVGLLEVVLEPDMSCGEEAATAVRELQLILQALGTSQANMAEGQLRVDANISVHHPGEPLGVRTEVKNLNSIRFLAKAIDYEIQRQINELENGGEILNETRSFHHKLGCTMSMRDKEGKQDYRFMPEPNLPPLVLYDATSLPAGADPQQVINIDQIRETLPELPSVTREKLVQQYGMLLEHSFTLLNEVGLLEFFQNVIKETRAEPKKVTSWVLNTFLGYLKQQNLAVSESPVTPSALAELLDLLDSRTISSSAAKQVFEELWKREGKTPGQIVSEKQLELMQDQGALEQLCHSVMEAHPQVVMDVKNRNPRAINKLIGLVRKATQSRADPVMIKEILEKKLSLEGHHHHHH | soluble
11 | MGSDKIHHHHHHMLGRTANGLYWMFRYIERAENSARLIDAGLRMSLTRSEAAEDDWDGVLQSADVRELYDQVHEGLTSGDAIDFLLRDRTNPSSVMSCIEAGRNNARMVRTALTRETWEAINECWIEMKGILARRAKTTDMPEIIDTIKRRAGLIRGAFHGTMLRNEIFNFSRIGTFIERADNTARILDVKYYVLLPAVSAVGSSMDNVQWESILRSVSAHRSYGWVYDAELRPANIADFLIANGRMPRSLAYCYDKLVSNLGYLAREYGERHAAHETAEQTLGLLRSQSIAEIMDQGLHQYLKEFINQNNRLGREISDGYRFYQ | not soluble
12 | LKKKVKRTCSNCLKGTAININNDILCIEKGIVSSDYVCSKHRFMPSFSSIKRKIHTCIDCEHFIIFDTSNVEDRAFGICELFTVRKYDGKNKKVCSKFVKRVKKEVC | not soluble
13 | MWRVGVYSSLRGYKRLNFCCEMLIAAYPKVGECAREGLMDKEVCINAAKGRFLGLRLPELFGGSDMRLNRSCRRRNMKLAAWCMLIQCDSRGGNHAAEVREIGDITKIAICQQCDFECAGPSANFKVTRLQGLRTLKAANRSESLNVEGCYALQSLLM | not soluble
14 | GSHSMKYFYTSMSRPGRGQPRFIAVGYVDDTQFVRFDSDAASQRMEPRAPWVEQEGPEYWDRETRNMKTETQNAPVNLRTLLRYYNQSEAGSHTLQRMVGCDLGPDGRLLRGYEQYAYDGKDYIALNEDLRSWTAADVAAQNTQRKWEAADVAESMRAYLEGQCVEWLPRYLEKGKETLQRTDPPKTHVTHHPVSDHEATLRCWALGFYPAEITLTWQRDGEDQTQDTELVETRPAGDGTFQKWAAVVVPSGEEQRYTCHVQHEGLPKPHTLKWEPHH | soluble
15 | MMEGLDDGPDFLSEEDRGLKAINVDLQSDAALQVDISDALSERDRVNFTVHTKSSLPNFKQNEFSVVRQHEEFIWLHDSFVENEDYAGYIIPPAPPRPDFDASREKLQKLGEGEGSMTKEEFTKMKQELEAEYLAIFKKTVAMHEVFLCRVAAHPILRKDLNFHVFLEYNQDLSVRGKNKKEKLEDFFKNMVKSADGVIVSGVKDVDDFFEHERTFLLEYHNRVKDASAKSDRMTRSHKSAADDYNRIGSSLYALGTQDSTDICKFFLKVSELFDKTRKIEARVSADEDLKLSDLLKYYLRESQAAKDLLYRRSRSLVDYENANKALDKARAKNKDVLQAETSQQLCCQKFEKISESAKQELIDFKTRRVAAFRKNLVELAELELKHAKGNLQLLQNCLAVLNGDT | soluble
16 | MGSDKIHHHHHHMKVKPFSLSIPFNTEPPSDWKDAWDVQLYVKVEDEKDYGWGEALVAGSGIINSYLSIINDIAIPLLSRVELSEPIDVRTILEKILFSAGNCGVVSGAISAVEMALWSLKARKSNVELYKLIGDKIRDSVKVYASFPRFGKIDDVLIATRKSLERGFDLVKLHQSPSTVLAAVKAIRENYKEVKIAIDLNSPFDNLDVAKEFVDKVHKYEIEWIEEPLWPPNDYDLLSKLTEFSPIPIAAGENEYSLYGFKKLIESGITYLQPDIAKVGGVTKFLEILDLASKYKVRVLPHDRPDASPISLIYTLNIGLVKSQIEMVEYTIADFPNDLFYSLPKFKDGYISPPENLEVVERNIEKYSYKNRLRILHFSDLENKLMRKIT | not soluble
17 | MGSDKIHHHHHHDLEEYRTTPKMVINSAFSPDTVVMASISRTWFHSESKPDVTIRNAKVELYIDGIFKEEMPWKEYSYWKSSRWLGEDRGGWVTDTLYISNTVPQPGQTVKIVASTPEYGTASAEDKIPSKTEIKGLRIIPRKEATGNGGTLVDGDGNISYIEENDVLIYQITFQDTPGKSNYYSLQIWGDDDHLGVLLDFSVDPVFTQQQGILDEVFGSSMVNWRGRVFSDELFDGKEYTLQVKEQLRSDTKYYTKRHIRLYSLSEPYYQYLLSLQNIKNEGIMGGLTNVGLAEPVRIYSNVEGGTGIAGGCQWFESLVDIKDLIK | not soluble
18 | MNRAEKREFVTWLNEAFRKSGSVIVAHYSGLTVSQMNDLRSKMSEAGGAIKVAKNRLAKIALQGTESESIVDLFSGQTLIAYSEDPITAPKVAVDFAKTNDKFVILGGSMGATSLSVDAVKSLASLPSLNELRAKLVGMISTPATRIAQVVNAPAGQVVRVIGAYAQEGKAA | not soluble
19 | MSLSSIRKKDVERFILSDDYKPMVLKELYKKFRAKTREQRKKVREVVKKLEKEGRIFRDSRGRYRKLGEDLKVGTIEFTRSGYVAFVITDDFEEIAVPVEDTKYAMHKDRVVVEITGTWRGLPRGRVVRVLERGLKRVVGVFDHKGTFGFVVPDDPKIAYDFYVAPENIDGAKPNQKVIAEILKYPSPGKNPEAKVVKVLGDLDDPSIDLPSVIVKHDLPEPGEFPEEVIREANAIPARVRKKDLVGRKDLRDKVIVTIDGEDAKDFDDAISVEKLPNGNYLLGVHIADVSHYVKEGSALDQEAFKRGTSVYLIDTVIPMLPFRLSNGICSLVEGKDRLTMSVEMEIDRDGRVVRYDVYPSVIKSKKRMIYERVNEFLEDPSSMKEYEPFKDLIYNAVELAEILREARRKRGAILDIESDEVKVILDENGQVVDIVPRKRGIAEKLIEEFMIRANETVAEIFDHAGLPFMYRVHEEPDPETIFQLKNYLEAMGIRAKFSHKIHPGMLQKLLEKVKDHPLRSSVERLLVRSMKRAMYSAVNIGHFGLASYAYTHFTSPIRRYPDLVVHRLLKLYLEQNGYFTPEQIEKFSKVLPKIAKHCSRRERVADEAEWDLVAMKKVEYIARHIGEVFNVVVTNITKFGLFVEIPEKSISGLVHISTLDDYYYYDETRNMLIGKRKGKVFRLGDVLKAKVVRADKIRGEIDFVLVEEDEEEGHHHHHH | not soluble
